Patent US12661385B2, “Modulation of mTORCI activity and autophagy via CIB2-RHEB interaction” (University of Maryland, Baltimore, priority 2018, dated 2026)

What was measured:
RPE-J cells = assay: LC3-II induction / LC3 flux immunoblots in transfected RPE-J cells; assay type: cell-based, rat; conditions: RPE-J cells overexpressing CIB2 vs GFP, in the presence of bafilomycin A1, 24 hrs
Protocol: FIG. 13. Loss of CIB2, specifically in the RPE, leads to LC3 flux deficits, while CIB2 overexpression, in vitro, restores LC3 flux._a-d, RPE whole mounts treated with DMSO or 50 μM bafilomycin A1 (Baf-A1) overnight show reduced levels of LC3-II, quantified in panels b and d, in Cib2 deficient mice as compared to WT controls, indicating autophagy deficits. Ratio for WT or RPE-Cre+; Cib2^+/+ was set to 1. e. Representative immunoblots for LC3-II induction in transiently transfected (GFP or CIB2-IRES-GFP) RPE-J cells treated with DMSO, 50 μM bafilomycin-A1 (Baf-A1), or 100 nM rapamycin (Rapa) for 24 hrs. f. Quantification of LC3 flux (ratio of LC3-II/actin in Baf-A1 to DMSO treated samples) or LC3B-II/actin ratio up on rapamycin treatment for immunoblots shown in (e). […]
Complementary to the findings of Cib2 mutant mice, over-expressing CIB2 in RPE-J cells increased LAMP-1 and ATG5-ATG12 complex proteins levels (FIG. 12c-d). […] To test this idea, we assessed LC3-II flux. LC3-I is a cytosolic protein which when lipidated with a phosphatidylethanolamine adduct (LC3-II form) localizes to the growing auto/phagosome membrane, and thus can be used as a reliable readout for the dynamic autophagic process (Valapala et al., Autophagy 10, 480-496 (2014); Kim et al., Noncanonical Autophagy Promotes the Visual Cycle. Cell 154, 365-376 (2013); Klionsky et al., Autophagy 12, 1-222 (2016)). […]

Raptor = Raptor (Homo sapiens, UniProt Q8N122); assay: Co-immunoprecipitation of Raptor and CIB2; assay type: binding; parameters: HA (N); mCherry (N); host or cells: HEK293
Text: FIG. 14. […] Arrowheads indicate filopodia tip accumulation of hCIB2-eGFP, * indicates no accumulation of indicted constructs in the red channel. c. Representative confocal images (top panel) showing CIB2 (green) interaction with Rheb (red) and Raptor (red) using NanoTRAP assay. […] Arrowheads indicate filopodia tip accumulation of indicated constructs, * indicates no accumulation of indicted construct in the red or far-red channel. Scale bar: 10 μm. d. Quantification for nanoTRAP assay for images shown above. *** p<0.001 by one-way ANOVA. e, Co-IP experiments show interaction between Raptor and CIB2.
To reveal the molecular mechanism of CIB2-mediated mTORC1 modulation, we focused on the TSC-Rheb-mTORC1 axis. We performed an interaction screen of specific proteins including TSC1, TSC2, mTORC1-specific subunit Raptor, mTOR kinase, and Rheb. We used a recently-published quantitative interaction assay known as nanoscale pulldown 2.0 (NanoSPD), in which eGFP-nanobody tag fused to the myosin-HMM domain (nanoTRAP) preferentially migrates to the filopodia (Bird et al., Molecular Biology of the Cell 28, 463-475 (2017)). CIB2-eGFP (bait) migrated efficiently to filopodia in COS-7 cells only in the presence of the nanoTRAP. […] Many downstream and upstream targets of mTORC1 regulate its activity via binding to the mTORC1-specific subunit Raptor. […]

Sequence of Raptor (Q8N122 whole entry): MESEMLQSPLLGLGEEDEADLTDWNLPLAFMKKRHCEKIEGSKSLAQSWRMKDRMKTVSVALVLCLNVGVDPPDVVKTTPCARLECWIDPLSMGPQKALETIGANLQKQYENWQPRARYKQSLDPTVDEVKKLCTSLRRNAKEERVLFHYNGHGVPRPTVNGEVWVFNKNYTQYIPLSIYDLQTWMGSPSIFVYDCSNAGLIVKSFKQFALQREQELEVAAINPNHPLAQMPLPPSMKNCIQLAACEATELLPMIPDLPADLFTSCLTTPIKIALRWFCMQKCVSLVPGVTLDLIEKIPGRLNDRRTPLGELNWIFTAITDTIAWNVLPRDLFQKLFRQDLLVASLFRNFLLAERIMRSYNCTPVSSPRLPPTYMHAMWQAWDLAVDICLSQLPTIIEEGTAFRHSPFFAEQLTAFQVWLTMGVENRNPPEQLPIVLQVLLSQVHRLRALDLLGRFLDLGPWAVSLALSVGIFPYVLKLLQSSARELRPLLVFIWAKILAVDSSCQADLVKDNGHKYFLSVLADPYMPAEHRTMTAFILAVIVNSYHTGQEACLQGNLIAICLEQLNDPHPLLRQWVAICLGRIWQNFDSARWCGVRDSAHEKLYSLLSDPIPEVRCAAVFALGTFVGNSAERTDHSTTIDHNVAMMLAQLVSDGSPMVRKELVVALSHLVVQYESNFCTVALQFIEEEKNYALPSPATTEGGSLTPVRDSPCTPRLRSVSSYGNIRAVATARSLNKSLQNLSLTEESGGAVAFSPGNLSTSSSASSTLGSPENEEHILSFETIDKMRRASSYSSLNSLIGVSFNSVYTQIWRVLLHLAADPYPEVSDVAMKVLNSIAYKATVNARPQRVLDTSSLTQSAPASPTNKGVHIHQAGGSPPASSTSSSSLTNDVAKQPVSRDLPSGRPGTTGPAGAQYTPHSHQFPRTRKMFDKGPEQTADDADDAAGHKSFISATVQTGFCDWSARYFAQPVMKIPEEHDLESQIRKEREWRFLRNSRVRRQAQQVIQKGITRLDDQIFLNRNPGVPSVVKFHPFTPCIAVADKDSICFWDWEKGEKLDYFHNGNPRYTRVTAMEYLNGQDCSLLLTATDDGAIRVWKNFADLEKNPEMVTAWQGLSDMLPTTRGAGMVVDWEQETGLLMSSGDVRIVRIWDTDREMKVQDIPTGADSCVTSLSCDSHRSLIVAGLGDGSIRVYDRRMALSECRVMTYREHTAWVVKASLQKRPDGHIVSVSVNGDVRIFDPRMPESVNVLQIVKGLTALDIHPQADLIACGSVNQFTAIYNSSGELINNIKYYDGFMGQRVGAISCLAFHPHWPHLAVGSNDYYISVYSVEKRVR

Interaction with Raptor (co-IP) (Raptor): confirmed the interaction
B1: CIB2: calcium and integrin binding protein 2, over-expressed in cells from plasmid constructs; SEQ ID NO:1 (human), SEQ ID NO:2 (mouse) (protein)
chain: MGNKQTIFTEEQLDNYQDCTFFNKKDILKLHARFYELAPNLVPMDYRKSPIVHVPMSLIIQMPELRENPFKERIVEAFSEDGEGNLTFNDFVDMFSVLCESAPRELKANYAFKIYDFNTDNFICKEDLEMTLARLTKSELEEDEVVLVCDKVIEEADLDGDGKLGFADFEDMIAKAPDFLSTFHIRI
modifications: left off: large carriers
Relative LC3 flux (ratio of LC3-II/actin in Baf-A1 to DMSO treated samples) (RPE-J cells): markedly increased
